Consider 17 sequences from a protein production outcome set (Wang et al. 2014).
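Also: failed if final PepcDB status was selected cloned or expressed and not failed if soluble or beyond.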

A short description of the data set: label from the status in PepcDB records.
Take “MEICSMSQPSSDQSVASFESKSLNILGEHIPVSELAGCEECDTVYRKVKLAAGERAYCVCCGAELYRKTRSLTSLLALVVTALIIFAIANSFPIVKVELQGNTSQTTLLGAAWTMFQIDRALVGILILFTTFIVPLLDLLLLTYILSSVGIFKQRPPYLRLALRILFLFRVWGMVEVFLIGVLVTLVKLVGMVVVIPGVALWAFAILSLLLVYIASVKIKDIWDEVDRCVP”: the protein production result is on record as “failed”.

“MEIFELILLMLSAVFLSNVLSRFLPSIAVPLIQVVLGIILAIPLGDHTMDLNPELFLLLFMAPILFNDGASTDKKSLWKNRKAILSLSIGLVFVTVGVLGAFIHYLIPAIPFAAAFALAAALAPTDAVAVGALAEKVRVPHKIMHILEGESLINDASGLVSFQFAVLALVTGTFSFMSAGTSFLLLSLGGIALGAILSLLKIMLMRGLRQLGIENMTSFMLMEILLPFLIFMVAEKVGVNGILAVVSGGMVHSFSYKGLNPEIAQLNLLSKNTWSVIIFSLNGLVFILLGTQLPQILMTIWQDANIQKGMLFVYIIGITFLLLGLRFLWILFFRNYEENPKVDLVSRLKNTFLYTVAGVRGTITLVSALSLPFVLGNGNAFPERDLLIFIAAGVIITTLLLANFTLPLFADKKDKVTADHTTDIVLLRDIVQQLQAYKTDENAVEMNKVLNMYNNRIFSLMEHKEVNATEKELRRLTQEWQLENTRRLVFERKIDTGVGLSHMMRLGKRLYVQTRAEKYRARMRYRQLLSHRFRDFRFVPLTFEERRKEIAKLQNENNLFVMQKLQDLDSNEYNPEIISLYLMNFERALGRGKNKKESNDEALQTTIDLASQIERETIQRYFEKGTITRKEMKVYRDNLLAIEANMQLEF”: the protein production result was “failed”.

For “MEIILLIIAAVVLFYFYNTLKEYLKNPLNPKTKTEEYDLKNDPYLLAQSSPLDKFKQTQTGAYMRLLKFLDIQKNALDNALRTLFIHELEQPLNSEQQNLAKELLNEPVDKKENFESLCQEIADHTHGEYTKRLKLVEFLMLLAYADGILDSKEKELFLDVGVFLQIDNQDFNELYDNFERFNAIEIPMSLEEAKSLFEIQTHTTKQDLEKKALDLSAPYYHKMNDNKRYSEQDFISLKKIAIASQLLENDLKDS”, the protein production entry was “failed”.

For “MEIKNIKEFEKASKKLQKDTLKIALALLFLIGAALLALIFGQANSKGLLLIFAAVIGGYMAMNIGANDVSNNVGPAVGSKAISMGGAILIAAICEMLGAIIAGGEVVSTIKGRIVSPEFINDAHIFINVMLASLLSGALWLHVATLIGAPVSTSHSVVGGIMGAGMAAAGMVAVNWHFLSGIVASWVISPLMGALIAMFFLMLIKKTIAYKEDKKSAALKVVPYLVALMSLTFSWYLIVKVLKRLYALNFEIQLACGCILALLIFILFKRFVLKKAPQLENSHESINELFNVPLIFAAALLSFAHGANDVANAIGPLAAISQTLEDANSPIGNTLSSVPLWIMVVGAAGIALGLSLYGPKLIKTVGSEITELDKMQAFCIALSAVITVLLASQLGLPVSSTHIVVGAVFGVGFLRERLREQSRRRFARIRDNIVAAHFGEDLEEIEGFLERFDKANLKEKSLMLESLKKSKNTAIALELKKKEKKSLKKVYKEEVIKRSILKKIVTAWLVTVPVSALLGALLFVALGFIEKYF”, the protein production result is “failed”.

For “MEIKRFGRIREVIPLPPLTEIQVESYRRALQADVPPEKRENVGIQAAFRETFPIEEEDKGKGGLVLDFLEYRLGEPPFPQDECREKDLTYQAPLYARLQLIHKDTGLIKEDEVFLGHIPLMTEDGSFIINGADRVIVSQIHRSPGVYFTPDPARPGRYIASIIPLPKRGPWIDLEVEPNGVVSMKVNKRKFPLVLLLRVLGYDQETLARELGAYGELVQGLMDESVFAMRPEEALIRLFTLLRPGDPPKRDKAVAYVYGLIADPRRYDLGEAGRYKAEEKLGIRLSGRTLARFEDGEFKDEVFLPTLRYLFALTAGVPGHEVDDIDHLGNRRIRTVGELMTDQFRVGLARLARGVRERMLMGSEDSLTPAKLVNSRPLEAAIREFFSRSQLSQFKDETNPLSSLRHKRRISALGPGGLTRERAGFDVRDVHRTHYGRICPVETPEGANIGLITSLAAYARVDELGFIRTPYRRVVGGVVTDEVVYMTATEEDRYTIAQANTPLEGNRIAAERVVARRKGEPVIVSPEEVEFMDVSPKQVFSVNTNLIPFLEHDDANRALMGSNMQTQAVPLIRAQAPVVMTGLEERVVRDSLAALYAEEDGEVAKVDGNRIVVRYEDGRLVEYPLRRFYRSNQGTALDQRPRVVVGQRVRKGDLLADGPASENGFLALGQNVLVAIMPFDGYNFEDAIVISEELLKRDFYTSIHIERYEIEARDTKLGPERITRDIPHLSEAALRDLDEEGVVRIGAEVKPGDILVGRTSFKGESEPTPEERLLRSIFGEKARDVKDTSLRVPPGEGGIVVRTVRLRRGDPGVELKPGVREVVRVYVAQKRKLQVGDKLANRHGNKGVVAKILPVEDMPHLPDGTPVDVILNPLGVPSRMNLGQILETHLGLAGYFLGQRYISPIFDGAKEPEIKELLAQAFEVYFGKRKGEGFGVDKREVEVLRRAEKLGLVTPGKTPEEQLKELFLQGKVVLYDGRTGEPIEGPIVVGQMFIMKLYHMVEDKMHARSTGPYSLITQQPLGGKAQFGGQRFGEMEVWALEAYGAAHTLQEMLTLKSDDIEGRNAAYEAIIKGEDVPEPSVPESFRVLVKELQALALDVQTLDEKDNPVDIFEGLASKR”, the protein production entry is given as “not failed”.

As to “MEIKSILIANRGEIALRALRTIKEMGKKAICVYSEADKDALYLKYADASICIGKARSSESYLNIPAIIAAAEIAEADAIFPGYGFLSENQNFVEICAKHNIKFIGPSVEAMNLMSDKSKAKQVMQRAGVPVIPGSDGALAGAEAAKKLAKEIGYPVILKAAAGGGGRGMRVVENEKDLEKAYWSAESEAMTAFGDGTMYMEKYIQNPRHIEVQVIGDSFGNVIHVGERDCSMQRRHQKLIEESPAILLDEKTRTRLHETAIKAAKAIGYEGAGTFEFLVDKNLDFYFIEMNTRLQVEHCVSEMVSGIDIIEQMIKVAEGYALPSQESIKLNGHSIECRITAEDSKTFLPSPGKITKYIPPAGRNVRMESHCYQDYSVPAYYDSMIGKLVVWAEDRNKAIAKMKVALDELLISGIKTTKDFHLSMMENPDFINNNYDTNYLARH”, the protein production entry is on record as “not failed”.

Turning to “MEISLLQAFALGIIAFIAGLDMFNGLTHMHRPVVLGPLVGLVLGDLHTGILTGDTLELVWMGLAPLAGAQPPNVIIGTIVGTAFAITTGVKPDVAVGVAVPFAVAVQMGITFLFSVMSGVMSRCDRMAENADTRGIERVNYLALLALGTFYFLCAFLPIYFGAEHAKTIIDVLPQRLIDGLGVAGGIMPAIGFAVLLKIMMKNVYIPYFILGFVAATWLKLPVLAIAAAALAMALIDLLRKSPEPTQPAAQKEEFEDGI”, the protein production entry was “failed”.

“MEISRGDFEQAYQNERNRMQAQLGDYFSNLLADPTYVASFRKSVLDRMVNDLLLEQHAASLGLRVSDEQVRQLILEIPQFQSQGVFDSTAYQATLRRAGFTPEMYAEYLRKDLVRNQLMSALQGSEFSLAGEVNLQDQLISQTRDIRTITLSLEDFAKKVTLSDEEIDQYYKTNTERFTRPEQVKVSYVELSADGLKAQVSVDDAAAQQYYQEHLDKYSTAEQRNVSHILIEGNDEQKAQAILDELNAGADFATLAKEKSQDLGSAAEGGSLGWIEPDTMDPAFEAAAFALTEKGQVSGLVKSDFGYHIIRLDDIKAPVVKPYSEVEQAIKQELIDQQALDSFYAKQSELEKMAFEHSDSLDEAAKAISATVVHTDFISAEQAPEVLTTPAVLQALKSPEVKEDGLNSEVIEVAPEHVVVVRVEEFRPETVLPLDEVKSQVVEQLSRMKGEQQALELGNQLVTALKAGETDLLAQKGVSFGELQMIDRSSPLANTVYAMVKPQEGEKVYAQAKDFDGNIVVIELSKVESKLTPAYHEQIATQLERIGSQQDLAGVISVLRQNTDIEYHIATELEHHHHHH”: the protein production entry is listed as “not failed”.

For the sequence “MEITDPGDFRQRIETSFARQGVVQAINAEISRIEHRLVEIELPFHEKLTQQHGILHAGVIAAGLDTACTYAAYTIIEPEASLLTIEFKVNLMSPGRGERFLFRGEIIKPGNNLIVADGRAYALSDGPAKLIASMTGTMMVVKGLEHHHHHH”, the protein production entry is “not failed”.

As to “MEKANIGFKAGIIFEKLGETGLITIAELARRLNFAADETALAAGWLARENKIYIERRNGLLYIRKELEHHHHHH”, the protein production entry was “failed”.

Regarding “MEKAVHSSTTSGPAVPGETTKTGTSIIDTAASAVQSFAPVNQIHQHLCAFHFYADDMARQVEAHHFCSHVNEEMRQCLIYDGPDANARLIGLEYIVSEKLFMTLPDEEKKLWHSHEWEVKGGFLFMPGVPGAIQRKDLDKVAKTYGKVFHFWQVDLGHELPIGLPNVMMAVTRDGQLFHEMIQEAEKRFGVSVEGERDSRAYMSGPELGIHPLANGGGKGMKLELREVDIKPVESVGSVFV”, the protein production result is on record as “failed”.

For “MEKHSHEHHHHHDISSISKNKLFFVIIFNFIIALAEVIGGSISGSLSLISDALHNLSDTASLILSYVSIKISEKPKNKAKTYGYKRANILAAFINSAALIGISIFLGVQALEKLTSLKKINANIVIVVALIGLLGNFLSVIILKKGAEKSLNVRSSYLHMLSDAMASLAVIISGVFIKYFAIYWIDSVLTIFINMLILKSSYNILKESINILMQTTPVNLDMDDVKEQLLKIKEIKGVHHFHIWTLDENNIVLEGHIEIDDILVSETRAISDKIEHILNEDFHITHVVIQFESTSCEDNICKI”, the protein production entry is “failed”.

As for “MEKIEDQFASLHIVRRSSEPKEPTYLLGIDTSKTVQADKGGLVAVLCSNGSIRIYDKETLHLLREFGGSPGLLSGVSFANSCDSVYSASTDGTVKCWDARGASEKPVQLFKGYPSCSFISFDVNCKDHVICAGAEKVDEDALLVFWDARFTSQDLSTRDPLGAYSETHSDDITQVRFHPSNPNLVVSGSTDGLVNVFDLSADKEEDALVATCNSVSSVSCIGWCGKDYKQIYCMTHDEGFCWWDLNHLDTDEPITCLNIQDVREITDVKDGHLDYLIGGLYHEKMDRLFVIGGTNTGKIHLLSCTSAGLTHVTSLHGGHAATVRSFCWNVSEDSLLTGGEDAQLLLWKPGAMEKTFTKKDSLKIASSVQQRVRVHSSDSYKKRKQQ”, the protein production result was “failed”.

In the case of “MEKILLERNWQDLEKLVLVSSKKAIRTLVNRIYIKDGLGFWRAVEALGVASALAEEQKKDSSVELVRRYFWSLNEESGGNAWNAAEAIGSIMASNPKECGHFNWMLANLLEDESLQEGTLWGLLNLSINAPEVVDPLVERVYPFLEARDVNQRGLAVWIFSLMKACPSAKERWEIEEELHKTLIQDQEMAEIYWEGEYYHFPVSELLGKEIVTFYAREYKQADFTWNISVASSQKGLCWVGLGTPEKEEGELRTWVQKRVPGSLVIPRALPNQKVMEQLEDYFSGIRQEFNLPLDPRGTDFQLKVWEELCRIPYGETRSYGEIAQNIGNPKGQRAVGLANNKNPIAIIIPCHRVVGKKGDLVGYASGLDHKVRLLNWEAAHRHQ”, the protein production result was “failed”.

Take “MEKKFLDILVCPVTKGRLEYHQDKQELWSRQAKLAYPIKDGIPYMLENEARALSEEELKALEHHHHHH”: the protein production entry is “not failed”.

For the sequence “MEKLSAREKPDINVAEAWEQYWNKTLVNATPVLWDANVERAVVVDLPRFQSFFDTELPLIDFACGNGTQTKFLSQFFPRVIGFDVSKTALEMASKENTAANISYRLLDGLVPEQAAQIHSEIGDANIYMRTGFHHIPVEKRELLAQSLRTLLGKQGVMYLIELGTGCIEFFNSLLEKYGKLPYELSLVMEHGIRPGIFTTEDIELYFPDFEILSQGESLFQSIHKLPDGNYATPPAFWAVIKRH”, the protein production result was “failed”.

“MEKNRRGIQSVELGSRVLQALAQFGRPAGLTELAQECDMPPGKVHPYLVSFMKVGFVARDPASGLYELGHLALELGLAKLHRLDPVREASQAIADLAAETGHGTGLVVWGNLGPTLIRLEEPAHPLHVNLRIGTVMSLVHTATGRLFAAYLPAKVVSRVLEADPMGVHFGSRHQSRPAQEDYERQLSEIRSRGISRTLGSPIPGIDAFCAPVFDSMGHIAAGLLVMGPSATFDSDWDGQIATRLHACANDISRKLGYIDTPASPRAAR”: the protein production result is recorded as “failed”.
